Data: the DeepSol protein solubility set

experiment: soluble on expression in E. coli; label from the status in PepcDB or PDB records

Sequence | soluble on expression in E. coli
MDHHSKAKELLQQRDELDGKIKELMLVLETNNSTMDSPLLDAEGYPLNTIDVYAVRHARHDLICLRNDRAALTEKIVVEMENENKEVSGQTATSEEKPVHRTSNEPFVKISSVVELSPADIGGFRKDDLIIQYGNLHHGNFNDMQEVAQITKQSEDKIIRVTVIRENRPVRLEICPKKWSGPGLLGCNIVPISGANV | not soluble
MGSDKIHHHHHHMPARPNHLSNNIVFRDGVQVMRMDLHVHTEVSHDCQTRLRDIPAWLLRTNTRVIAITDHDEQRGGPELKRLVADLGLADRLSIIPGEEITTSEGELIGLFLEERIPPGLTPEATVQEIKAQGGLVLLQHGFDPLKRYRLRPEATQRIADQIDMVETFNSRLSRHHWNRVAAEWARARHLPVCAGSDAHTLRDIGEAWVETPFRLIHTPEQLLQALDEGVVGGRWTHPVYAYGLKQWRNLNGRFQRKD | not soluble
MLDDIPITIQKSKKIKTLSLNITPSLEVILKMPNSCSQTRASAFLKEQEAWLKKTFLSMQEKHSLLRTNLEKYQNKILVFDEVKNANDYTLTELKKILKTYLEQKLPLIAQKMQTSYTHFSIRNNAKVLGSCSYHNRLSFALLLVCAQKEAIDYVIIHELAHTIHKNHSKNFWRCVQIFCPNYRALRERLKQNTIFYAQLLKTLQPLEHHHHHH | soluble
MLVWEELREKALNKIYHDKEIGYLDPDILGFLLAFYRNRNDVYTQSSCSGRITIVDAEMPWDRKNSTIIFKNHLRITEQDLEDVLSKNQVRRLWLIVQGPIIHIYAKNIETGWDILKIAREAGFKHSGILATNQKGVLVELRTGIRMVHLLRESNTERVDKDKIKTLVNVCNEVLARGKQKMNLLKDLLSSSSNNSMELGKNSKLKTPI | soluble
MAHHHHHHMSRLKHVEWDEKNLEANAEYQRQHPVTIHITEPKTPYSYADGDDLEAEEEGLLKWDPAVNAKVKEIKEQIAGDFSDRPVAPIAKSGRPMLAEGTSTGELAQQQHQKEFRKMRKAVYADEGAMFKRALSHECKDEDDE | not soluble
MIDKVRAFIHRHQLLSEGAAVIVGVSGGPDSLALLHVFLSLRDEWKLQVIAAHVDHMFRGRESEEEMEFVKRFCVERRILCETAQIDVPAFQRSAGLGAQEAARICRYRFFAELMEKHQAGYVAVGHHGDDQVETILMRLVRGSTSKGYAGIPVKRPFHGGYLIRPFLAVSRAEIEAYCRQMGLSPRCDPSNEKDDYTRNRFRHHIVPLLRQENPRLHERFQQYSEMMAEDEQFLEELAADALNKVMEKQHRDAALSIGPFLELPRPLQRRVLQLLLLRLYGGVPPTLTSVHIGHILMLCERGRPSGMIDLPKGLKVIRSYDRCLFTFDAESGEKGYWFELPVPALLPLPNGYAIISEFGEHYPRKQAGNDWFVVDPASVSLPLRVRTRRRGDRMVLKGTGGTKKLKEIFIEAKIPRMERDRWPIVEDADGRILWVPGLKKSAFEAQNRGQARYILLQYQAMNS | soluble
MNYQVLLYYKYTTIDDPEQFAQDHLAFCKAHHLKGRILVSTEGINGTLSGTKEETEQYMAHMHADERFKDMVFKIDEAEGHAFKKMHVRPRKEIVALDLEDDVDPRHTTGQYLSPVEFRKALEDDDTVIIDARNDYEFDLGHFRGAIRPDITRFRDLPDWIKENKALFTDKKVVTYCTGGIRCEKFSGWLLKEGFEDVAQLHGGIATYGKDPETKGQYWDGKMYVFDDRISVDINQVEKTIIGKDWFDGKPCERYINCANPECNKQILVSEENETKYLGACSYECAKHERNRYVQANNISDNEWQQRLTNFDDLHQHALEHHHHHH | soluble
MGSDKIHHHHHHMENRIVKFKSKESAGLNLHAIPGHFATSHSHINYYVDVTSIKTRVSEAKEAAKALYTKVPHHSYIDTIVCMDGTEMIGAFLSQEIERNGLMSVNKHETIYVVSPEINNGQMLFRDNNKGAIDGKHVVLLLATTTTGETIRRAMECINYYGGMVTCIASIFSTIDEVNGVKIDKLFDDDDVVNYQTYPVTECPFCKKGLPIEAMVNGFGYSKL | not soluble
MGSDKIHHHHHHMKQILFMDTTLRDGEQSPGVNLNEQEKLQIARQLERLGIHVMEAGFAAASEGDFQSVKRIANTIQNATVMSLARAKESDIRRAYEAVKGAVSPRLHVFLATSDIHMKYKLCMSKEDVLDSIHRSVTLGKSLFPTVQFSAEDATRTARDFLAEAVEVAIRAGANVINIPDTVGYTNPEEYYSLFKYLQESVPSYEKAIFSCHCHDDLGMAVANSLAAVEGGALQVEGTINGIGERAGNAALEEVAVALHIRKDFYQAEPSMTLKEIKATSTLVSRLTGMVVPKNKAIVGANAFAHESGIHQDGVLKEVTTYEIIEPELVGESQNLFVLGKHSGRHAFTEKMKELGYEFTTEERDAVFEAFKKLADRKKEITEEDLRALMLGEAAFAAQQYNITQLQVHFVSNSTQCATVVLKDEEGNVFEDAATGSGSIEAIYNAIQRILGLECELADYRIQSITQGQDALAHVHVELKEGTHQVSGFGVAQDVLEASARAYVHAAGKLKSFIQLVK | not soluble
GTEDTFWKDETDFNLALTSCYTPLKNALNGGYYGTRGVMLRIARADEVDFRNDISDVYTVNRFTNSNTNSLTQGMFYQFYNALYRTNSIMQKLEEKKEQFSTDFQNSVKGECLFIRGFYLFQLAKEFKDAPLRLTASQSPSTFPLAKSSQADIWAQAKEDLKTAASLLPITNKIGKPTQGAAYAALGKIYVYEENWQEAINVLEPLTQNPYTYKLVEDFNWNFDDTHENNAESIFELLIEDVGGTDLWGDGENINSTQSNTRPKEYAAAEVGGWYEANPTQQIMDIFWKEKDKDGNFDYRARCSVAWDYEGCTYYQRPFREVFAQDKWKTYWILKYQNWKTQKDEPAPPKSFINERAIRYADVLLMLAEAYMNKGALDTSIGYINQIRRRANLNDYSGPITKEGVFEDLVHQRAIEFFVEGERFYDLRRWGLLEQTLKTCDDTRYKNYQTGKSDNINKFNYFPIPAKELDTNPLCTPSEGW | soluble
MPLDGEYEPSPTQWVREQVERYESSGGTEGTTLMDTGLPVIVLTTRGARSGKLRKTPLMRVEHEGRYAVVASLGGAPKHPVWYFNVKADPRVELQDGPVKQDMTAREVTGAEKARWWERAVAAYPSYADYQKKTEREIPVFVLEPSHAG | not soluble
MAHHHHHHMNPMDALIARAAAEERQQAKMKQKSTRVSGESDLDHPSPSAAFPDSVISRGERASILCYVDPAATTTSSNFSVRRLRTFSACPTFKGGMIMRLTMCHDAQHLTVAFESGHIVLARYRDADVIDMADEPGEVCHAGGSMSVARVRNVTRAFADSALACWWSGRRMLACSSEGGMHCYDVSATAEGLLEAHLVWSVTLRKGIGSVFLQRNLVVAGCWDSTLRLYDARDGRLVSILSYQRETINEVRAAPPSIARVAAFGFDVRQPRLYAGQPGALSTKIPACIASNSKAVTQGNLPQFSESPLRETYVAGTPTPHSSSGSLAAEEQLVYLFASASKACTVALWRVDLGLVVEQTAREAIAAQTV | not soluble
MGHHHHHHSHMDFSHWPHVLPLEPGGCIDFQTENSSRHCLVTYRPDKNHTTIRSVLMEMSYRLDDTGNPICSCQPVHTFFGGPTCKLLTKNAIFQSPENDGNILVCTGDEAANSALLWDAASGSLLQDLRTDQPVLDICPFEVNRNSYLATLTEKMVHIYKWE | not soluble
GMSEAPHLTFDLDTPGVSTGHLVVPKGADCEALSLPVFSCNRGEGPSLLITGGNHGNELQGPILARRLVKWLPEAQRCGRIIIVPEINPLAVQAWTRNTPIDGKNLNRVFPGRSDGSVSERIADAISRLLLPVVDTVLDLHSFGPTWDCAPSIISHPIADIDQMTKTVSISKAFKLPVTLLWEHNETDGMFDTLVHRQGKTFICTEFGGGVVSAEALTIYEAGVRNGLIALGLVKGKAEYPTFRQQKTGQTLETTSSDQLKSPSPGIFEPRCSVMDEVEQGDVVGVLHPMGSLSAASIDIRAQSKSTVFAIRSAMYVQGNEEVAILARPLAR | soluble
MAMSIELRTKYGQIDISNEVIAMVAGGAAVDCYGIVGSKNQIKDGLTEILRKENFSRGVQVRQEGEQIHIDMYIIVSYGTKISEVAHNVQTKVKYTVNQTIGLAVDSVNIYVQGVRVTNPLEHHHHHH | not soluble
MAHHHHHHMSLAREKYLKRKRELLENINLIDIGEKISNTGKNEGNSKSDNIKKESRSRDFIKNDNRTRESFKKNDRGEYIDNDRKHLKSNNYNMLSSYNNKDIKNENRDLRKSPYDHRKLNNKNEQDILSNKTKRSSTNLQYNNDYAFVNKENNVLINNSSKMVNSTNNINEYLKDLNNIDINDSLILLFYVCKLLLDMCSKVNMNQSSMNTSVTSVEMLRDMKSKNRKNIKLFKINILNNILIYLSDENVNTLTQGNPNYKDNNFEKRHEEIRIDEKCIDIEHVGINIVIKVIYINNIKKLIFKYLYLINNNFKHDGVGNINMYDGRLNKNEEQNYFTTPLMEHKNINFMNN | not soluble
MAHHHHHHMDKYGDRKLQEGIYKLNNKKIKGYIPFQSASSIIPKQIRDKGIIEVMKELEKREEELNEKTKNDQEKHKVNKMNLFKSNSMNVKRKHVFSSFKIPRKI | soluble
MSLADPIKIGVIAEAQAIAGASIPQAAQLAAEEINAKGGIDGRKIEIVSYDNHSSSADSVRAFQRAVNEDKVNAVIASYISEVVLALMPWASRLKTPFVTPGAASNEITKAINKDYEKNKYTFHGYLTSGELAQSVCDAAKDLLVDARQMKSAVIMSEDAAWTKPLDVGYQECLPKVGLKVLDHIRFSPDTTDFTPIFNKIEGSKPDVIITGISHVGVQPTVQWKNQQVPIPMFGIASQATNETFGKDTNNASDGVLYQGVSGPGVAVTSKSVPFAENFKKKYGNYPSYAGYTAYDEVYYIAEAVKRAGSTDGEKLVEALEKTDYEGTIGRVQFYGKDEPFTHGLKYGKGLLTGLMLQWQDGKQVAVWPPEVAKAEGHHHHHH | soluble
VVRVGRRSATFYPPEGAAALIGDFTDWERNPIPLEGPLTLEFPEGAYVEYAFLDREGRPFPDPDNPEKAENPWWSYPRAIKLPGFRYEAPPAPKEEPKVHRHRLGERRFYVAETGPSPKATVVAQDGVAFYRTAGLHKVARALFEAGEIPPVRLVFVEPIDRNTEYRFNEAYEAEFHRVLEEVEGAYGPLNELVLVGASLGGLFSLWQAWRHPERFPKVLALSPALKAHPGGKDAYRDEEWLLARYAEARRLPRVYVEVGLLEWLLGPNRRLAALFADKKVPHAYRERPSGHNWVTWKQALAPGLRYLLGPQ | soluble
MLQNRLNKARSHAEKHDVDAIVFFNMSNVRYLSGFTGSDGAVVLGRDASWFLTDSRYTTQASRQVVGLPTVEYRIKLDGITELVREQGFRRIGFESEHTAFAVYESLRQKLPKTELVPIGEELAQLRLIKDPSECELLSRVARLASEALLSILPLVKPGAVERELALELEFAMRRAGAENASFDFIVASGERGSLPHGRASDKALAAGELVTIDFGARYEGYCSDETVTVAVGVPDERQCQIYGIVKEAHDRAIAAVRPGAELREIDRIARGYIEEQGYGAFFGHGLGHGVGLDVHEKPVVSPRGEGVAAVGMVFTIEPGIYIPGWGGVRIEDTVIVTEDGCRPITMIPKELMIL | not soluble
MLSAFTPRPLKRLFTANQCWTSFLDAGGLRDIEVEAVTKMLACGTRILGVKEYICDKPECPHVRYVTNSCGSRACPSCGKKATDLWIATQLNRLPDCDWVHLVFTLPDTQWPVFESNRWLLNDVCRLAVENLLYAARKRGQEPGIFCAIHTYGRRLNWHPHVHVSVTCGGLNKHGQWKKLSFLKDAMRSRWMWNMRQRLLKAWSEGLAMPESLSHITTESQRRSLVLKAGGKYWHVYMSKKTAGGRNTARYLGRYLKKPPIAASRLAHYNGGGA | not soluble
